Reference: patent US20220177587A1, “METHODS AND USES OF VARIANT CD80 FUSION PROTEINS AND RELATED CONSTRUCTS” (Alpine Immune Sciences, Inc., priority 2018, published 2022)
Changes are numbered by the printed parent chain. Numbers in names are those of the source.

B1: H18V/A26P/E35D/M47L/V68M/A71G (protein, UniProt P33681 35-288, looked up, variant H18V A26P E35D M47L V68M A71G)
T-lymphocyte activation …: VIHVTKEVKEVATLSCGVNVSVEELPQTRIYWQKDKKMVLTMMSGDLNIWPEYKNRTIFDITNNLSIMILGLRPSDEGTYECVVLKYEKDAFKREHLAEVTLSVKADFPTPSISDFEIPTSNIRRIICSTSGGFPEPHLSWLENGEELNAINTTVSQDPETELYAVSSKLDFNMTTNHSFMCLIKYGHLRVNQTFNWNTTKQEHFPDNLLPSWAITLISVNGIFVICCLTYCFAPRCRERRRNERLRRESVRPV
B2: H18V/A26Q/E35D/M47V/V68L/A71G/D90G (protein, UniProt P33681 35-288, looked up, variant H18V A26Q E35D M47V V68L A71G D90G)
T-lymphocyte activation …: B1 T-lymphocyte activation … with P26Q, L47V, M68L, D90G
B3: H18V/A26D/E35D/M47V/V68M/A71G/D90G (protein, UniProt P33681 35-288, looked up, variant H18V A26D E35D M47V V68M A71G D90G)
T-lymphocyte activation …: B1 T-lymphocyte activation … with P26D, L47V, D90G
modifications: Fc fusion
B4: H18F/A26N/E35D/M47V/V68M/A71G/D90K (protein, UniProt P33681 35-288, looked up, variant H18F A26N E35D M47V V68M A71G D90K)
T-lymphocyte activation …: B1 T-lymphocyte activation … with V18F, P26N, L47V, D90K
B5: E35D/M47V/N48K/V68M/K89N EAAAK (protein, UniProt P33681 35-288, looked up, variant E35D M47V N48K V68M K89N)
T-lymphocyte activation …: B1 T-lymphocyte activation … with V18H, P26A, L47V, N48K, G71A, K89N
modifications: EAAAK linker
B6: E35D/D46V/M47L/V68M/L85Q/E88D (EAAAK)3 (protein, UniProt P33681 35-288, looked up, variant E35D D46V M47L V68M L85Q E88D)
T-lymphocyte activation …: B1 T-lymphocyte activation … with V18H, P26A, D46V, G71A, L85Q, E88D
modifications: (EAAAK)3 linker
B7: E35D/M47V/N48K/V68M/K89N delta (protein)
chain: VIHVTKEVKEVATLSCGHNVSVEELAQTRIYWQKDKKMVLTMMSGDVKIWPEYKNRTIFDITNNLSIMILALRPSDEGTYECVVLKYENDAFKREHLAEVTLSVKTHTCPPCPAPEAEGAPSVFLFPPKPKDTLMISRTPEVTCVVVDVSHEDPEVKFNWYVDGVEVHNAKTKPREEQYNSTYRVVSVLTVLHQDWLNGKEYKCKVSNKALPAPIEKTISKAKGQPREPQVYTLPPSREEMTKNQVSLTCLVKGFYPSDIAVEWESNGQPENNYKTTPPVLDSDGSFFLYSKLTVDKSRWQQGNVFSCSVMHEALHNHYTQKSLSLSPG
B8: E35D/D46V/M47L/V68M/L85Q/E88D delta (protein)
chain: B7 chain with D46V, V47L, K48N, L85Q, E88D, N89K
B9: H18L, R29D, Y31L, Q33H, K36G, M38I, T41A, M43R, M47T, E81V, L85R, K89N, A91T, F92P, K93V, R94L, E99D, T130A (protein)
chain: VIHVTKEVKEVATLSCGLNVSVEELAQTDILWHKEGKIVLAMRSGDTNIWPEYKNRTIFDITNNLSIVILALRPSDEGTYVCVVRKYENDTPVLEHLADVTLSVKADFPTPSISDFEIPTSNIRRIICSASGGFPEPHLSWLENGEELNAINTTVSQDPETELYAVSSKLDFNMTTNHSFMCLIKYGHLRVNQTFNWNTTKQEHFPDN

target: huPD-L1 (Homo sapiens, UniProt Q9NZQ7); assay: Flow binding to CHO cells stably expressing PD-L1; parameters: huCTLA4 and huPD-L1, full-length mammalian surface expression constructs were generated; expressed in transfected cells; host or cells: CHO cells, lentiviral transduction, sorted to >98% purity; conditions: Table E23; CD80 IgV-Fc (inert) at 33.3 nM; CHO cells stably expressing PD-L1
Sequence (Q9NZQ7 19-290): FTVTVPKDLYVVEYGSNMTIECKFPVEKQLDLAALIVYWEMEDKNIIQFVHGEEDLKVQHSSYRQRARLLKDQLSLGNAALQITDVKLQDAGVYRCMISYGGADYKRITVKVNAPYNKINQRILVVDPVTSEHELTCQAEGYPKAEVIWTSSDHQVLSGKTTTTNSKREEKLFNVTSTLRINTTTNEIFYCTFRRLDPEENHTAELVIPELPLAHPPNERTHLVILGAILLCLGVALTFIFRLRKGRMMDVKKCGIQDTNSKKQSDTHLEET
In short: (§1)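 Flow cytometry on transfected CHO cells or CD28+ Jurkat/IL2 reporter cells, blocked 20 min in PBS/1% BSA/0.1% azide. Fusion protein 45 min on ice; PE anti-human Fc 1:150, 30 min on ice; fixed in 2% formaldehyde. Read-out PE MFI, EC50 calculated.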

Molecule | PD-L1 MFI at 33.3 nM
B1 | 52405
B2 | 33597
B3 | 67503
B4 | 22395

same assay, conditions: Table E23; MFI at 33.3 nM relative to CD80 WT IgV-Fc

Molecule | PD-L1 Fold change to WT CD80
B1 | 317.6
B2 | 203.6
B3 | 409.1
B4 | 135.7

same assay, conditions: Table E23; ratio of MFI at 33.3 nM

Molecule | Ratio of PDL1:CD28
B1 | 21.4
B2 | 10.7
B3 | 10.8
B4 | 7.1

same assay, conditions: Table E25; linker variants; 33.3 nM; CHO cells stably expressing PD-L1

Molecule | PD-L1 MFI at 33.3 nM
B5 | 22862
B6 | 25461
B7 | 20442
B8 | 22538

same assay, conditions: Table E25; linker variants; ratio of MFI at 33.3 nM

Molecule | Ratio of PDL1:CD28
B5 | 9
B6 | 129
B7 | 4
B8 | 5

same assay, conditions: Table E25; linker variants; relative to CD80 WT IgV-Fc

Molecule | PD-L1 Fold change to WT CD80
B5 | 490.6
B6 | 546.4

target: huCTLA4 (Homo sapiens, UniProt P16410); assay: Flow binding to CHO cells stably expressing CTLA4; parameters: huCTLA4 and huPD-L1, full-length mammalian surface expression constructs were generated; expressed in transfected cells; host or cells: CHO cells, lentiviral transduction, sorted to >98% purity; conditions: Table E23; CD80 IgV-Fc (inert) at 33.3 nM; CHO cells stably expressing CTLA4
Sequence (P16410 36-223): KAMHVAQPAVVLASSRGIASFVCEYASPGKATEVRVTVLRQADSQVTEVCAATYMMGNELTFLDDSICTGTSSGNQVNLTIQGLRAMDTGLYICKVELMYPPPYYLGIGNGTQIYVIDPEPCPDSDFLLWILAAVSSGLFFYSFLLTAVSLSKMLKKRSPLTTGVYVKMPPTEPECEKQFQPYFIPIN
In short: as §1

Molecule | CTLA4 MFI at 33.3 nM
B1 | 16192
B2 | 17654
B3 | 22132
B4 | 15206

same assay, conditions: Table E23; MFI at 33.3 nM relative to CD80 WT IgV-Fc

Molecule | CTLA4 Fold change to WT CD80
B1 | 11.7
B2 | 12.8
B3 | 16.0
B4 | 11.0

same assay, conditions: Table E25; linker variants; 33.3 nM; CHO cells stably expressing CTLA4

Molecule | CTLA4 MFI at 33.3 nM
B5 | 27516
B6 | 32048
B7 | 3091
B8 | 12177

same assay, conditions: Table E25; linker variants; relative to CD80 WT IgV-Fc

Molecule | CTLA4 Fold change to WT CD80
B5 | 23.0
B6 | 26.8

target: T1, CD28 (Homo sapiens, UniProt P10747); assay: Jurkat/IL2 + CHO/OKT3 +/- PD-L1 reporter assay: PD-L1-dependent CD28 costimulation; format: cell-based; parameters: host or cells: Jurkat cells expressing an IL-2-luciferase reporter; conditions: Table E24; Jurkat/IL2 + CHO/OKT3/PD-L1; 5.0 nM
In short: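 Jurkat reporter cells (100,000/well) preincubated 15 min at room temperature with test protein, then cocultured 5 h at 37 °C with CHO aAPCs bearing anti-CD3 scFv (OKT3) with or without PD-L1. Luciferase luminescence (RLU) read after lysis-substrate addition.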

Molecule | Fold Increase over WT CD80-IgV-Fe | Relative Luciferase Units (RLU), CD80 Conc 5.0 nM [RLU]
B1 | 4.7 | 808
B2 | 4.6 | 795
B3 | 4.5 | 771
B4 | 5.4 | 919

same assay, conditions: Table E26; linker variants; 5.0 nM

Molecule | Fold Increase over WT CD80-IgV-Fe
B5 | 4.38
B6 | 5.25
B7 | 2.63
B8 | 2.77

same assay, conditions: Table E26; linker variants; Jurkat/IL2 + CHO/OKT3/PD-L1; 5.0 nM

Molecule | Relative Luciferase Units (RLU), CD80 Conc 5.0 nM [RLU]
B5 | 1707
B6 | 2046
B7 | 1026
B8 | 1079

system: human pan T cells; assay: Anti-CD3 coimmobilization assay, IFN-gamma; format: cell-based; conditions: Table E34; culture supernatant, 3 days
Description: Costimulatory bioactivity of CD80 fusion variants was determined in anti-CD3 coimmobilization assays. 1 nM or 4 nM mouse anti-human CD3 (OKT3, Biolegends, USA) was diluted in PBS with 1 nM to 80 nM rCD80.Fc variant proteins. This mixture was added to tissue culture treated flat bottom 96-well plates (Corning, USA) overnight to facilitate adherence of the stimulatory proteins to the wells of the plate. The next day, unbound protein was washed off the plates and 100,000 purified human pan T cells (BenTech Bio, US) or human T cell clone BC3 (Astarte Biologics, USA) were added to each well in a final volume of 200 μl of Ex-Vivo 15 media (Lonza, Switzerland). Cells were cultured 3 days before harvesting culture supernatants and measuring human IFN-gamma levels with Duoset ELISA kit (R&D Systems, USA) as described above.

Molecule | Anti-CD3 IFN-gamma Coimmobilization Assay [pg/mL]
B9 | 174

target: T1, CD28; assay: Flow binding to Jurkat/IL2 reporter cells (CD28); parameters: host or cells: Jurkat cells expressing an IL-2-luciferase reporter; conditions: Table E23; CD80 IgV-Fc (inert) at 33.3 nM; Jurkat (CD28)
In short: as §1

Molecule | CD28 MFI at 33.3 nM
B1 | 2452
B2 | 3126
B3 | 6253
B4 | 3170

same assay, conditions: Table E23; MFI at 33.3 nM relative to CD80 WT IgV-Fc

Molecule | CD28 Fold change to WT CD80
B1 | 24.0
B2 | 30.6
B3 | 61.3
B4 | 31.1

same assay, conditions: Table E25; linker variants; 33.3 nM; Jurkats (CD28)

Molecule | CD28 MFI at 33.3 nM
B5 | 2634
B6 | 197
B7 | 4678
B8 | 4173

same assay, conditions: Table E25; linker variants; relative to CD80 WT IgV-Fc

Molecule | CD28 Fold change to WT CD80
B5 | 47.1
B6 | 3.5
